As a reminder, the stoichiometry N is the number of molecules, sites or subunits per partner or assembly.

Experimental findings from publication PMC5602543 are described below.

Assay [1] deals with MPyV VP1 (major capsid protein of mouse polyomavirus) as VLPs of the VarB structure (mouse polyomavirus (MPyV)) (UniProt P03090). Nature of the assay: co-purification with VLPs (SDS-PAGE, Western blot, band densitometry); VP1 and FLAG-Cap-tVP3 co-expressed in insect cells; purified VLPs VarB resolved by SDS-PAGE, anti-FLAG blot; densities of Coomassie-stained bands measured.
The target in assay [2] is VarC (VP1-Cap-His: entire PCV2b Cap fused to the C-terminus of MPyV VP1) (mouse polyomavirus (MPyV) | porcine circovirus 2b (PCV2b)) (UniProt P03090). In words: native gel or EMSA; blue native PAGE (BN-PAGE) of purified VarC, native 3-12% gradient gel, Gelcode staining. (A gel shift assay detects complexes by their altered migration in electrophoresis.)

Regarding “FLAG-Cap-tVP3 (entire PCV2b Cap fused with truncated MPyV minor capsid protein VP3)”, the stoichiometry N (FLAG-Cap-tVP3 molecules per one particle) in assay [1] amounted to 12. The same substance gave a stoichiometry N in assay [1] (scale: molecules of Cap protein per one VLP) of 14.
In assay [2], “VarC (VP1-Cap-His: entire PCV2b Cap fused to the C-terminus of MPyV VP1) (from UniProt P03090 1-383)” came in with a stoichiometry N of 10.
